Experiment [1] has as its system splenic B cells. Nature of the experiment: Splenic B cell numbers and activation in C8161 tumour bearing mice (flow cytometry). Type of experiment: in vivo, CD-1 nude mice. The following applies: C8161-engrafted mice. The protocol: The increase in B cells was examined in BD-BRM-treated CD-1 nude mice. Briefly, the mice with human melanoma xenografts were treated for 4 weeks with either BD-BRM or PBS, as described in the preceding examples. Splenocytes were examined by flow cytometry for B cells using anti-IgM antibodies.
Antibodies fluorescein isothiocyanate (FITC)-anti-mouse IgM (eB121-15F9; IgG2a), phycoerythrin (PE) anti-mouse CD86 (GL1; IgG2a) and PE anti-mouse CD80 (16-10A1; hamster IgG) were purchased from eBioscience (San Diego, Calif.).
Flow cytometry was performed as described above. Briefly, splenocytes were isolated individually from CD1-nude C8161 tumour bearing mice treated 4 weeks with BD-BRM or PBS. Red blood cells were removed, followed by surface staining with (A) anti-IgM antibody-FITC or (B) anti-IgM-FITC and anti-CD80-PE+anti-CD86-PE by flow cytometry.
The effect of interleukin 17E on increased percentage of splenic eosinophils and B cells and the proportion of activated splenic B cells was examined. CD1-nude mice engrafted with C8161 human melanoma cells were treated with either PBS, murine IL-17E, or human IL-17E as described previously. At the endpoint of the experiment, spleens were isolated from treated mice, stained with markers specific for eosinophils (CCR3+), B cells (either IgM+ or CD19+), and B cell activation (CD-80+, CD86+), and examined by flow cytometry. Flow cytometry was performed as described in Example 4 above.
The percentage of eosinophils was determined by surface staining the granulocyte-gated population with phycoerythrin (PE)-conjugated anti-mouse CCR3. The percentage of B cells in the spleen was examined by surface staining with phycoerythrin (PE)-conjugated anti-mouse CD19. The proportion of activated splenic B cells was determined by staining with FITC-conjugated anti-mouse IgM together with PE-conjugated anti-mouse CD80 and PE-conjugated anti-mouse CD86. Statistical analysis was performed to compare eosinophil and B cell numbers/activation. P values <0.01 were considered to be significant.
In order to confirm that the effect of BD-BRM on splenic B cells as described in Example 5 is due to interleukin 17E activity, the effect of interleukin 17E on numbers and activation status of splenic B cells was examined. CD1-nude mice engrafted with C8161 human melanoma cells were treated with either PBS or murine IL-17E as described previously. At the endpoint of the experiment, spleens were isolated from treated mice, stained with markers specific for B cells (IgM+), and B cell activation (CD-80+, CD86+), and examined by flow cytometry. Flow cytometry was performed as described in Example 4 above.
Splenocytes were analyzed for the percentage of B cells by surface staining with FITC-conjugated anti-mouse IgM antibodies. Activated B cells were determined by surface staining with FITC-conjugated-anti-mouse IgM antibodies, and PE-conjugated-anti-mouse CD80 and PE-conjugated-anti-mouse CD86. Statistical analysis was performed to compare B cell numbers/activation. P values <0.01 were considered to be significant.
A general note: Flow cytometry measures light scatter and fluorescence of single cells or particles in a stream.

For experiment [2], the system named is IkappaB alpha (NF-kappaB pathway). Nature of the experiment: NF-kappaB pathway activation: IkappaB alpha phosphorylation in WEHI-231 cells. Type of experiment: cell-based. Particulars: 0.7 μg per 5×10^6 WEHI-231 cells, 0, 2, 5 minutes. Here is the method:
The ability of both human and murine interleukin 17E to activate proteins in the Nuclear Factor-kappa B (NF-kappaB) pathway was examined using the B cell lymphoma cell line WEHI-231. […] Activation of the NK-kappaB pathway was assessed by increased phosphorylation of the protein IkappaB alpha. […] The activation of NF-kappa B is associated with the phosphorylation of IkappaB alpha in response to certain stimuli.
A total 5×10^6 cells per sample were stimulated with 0.7 μg of either human IL-17E (hIL-17E) or murine IL-17E (mIL-17E) at 37° C. Cells were lysed at time points t=0, 2, and 5 minutes in lysis buffer for 30 minutes on ice, followed by centrifugation for 10 minutes. Samples containing approximately 40 μg of protein were separated by SDS-PAGE, followed by transfer to membranes for Western blotting.
Blots were incubated with rabbit anti-phospho-IkappaB-alpha antibodies, followed by horesradish peroxidase (HRP)-conjugated anti-rabbit antibodies. Blots were exposed to autoradiography film and developed to detect phosphorylated IkB (at approximately 41 kD) by chemiluminescence.
(§1) To assess equivalence in protein loading among lanes in both experiments, blots were stripped of antibodies and incubated with mouse anti-GAPDH antibodies and HRP-conjugated anti-mouse antibodies, followed by chemiluminescence-based detection.

The subject of experiment [3] is B cell linker protein BLNK. Kind of experiment: BLNK phosphorylation in B cell lymphoma cell line WEHI-231 (Western blot). Particulars: 0.21 μg per 1.5×10^6 WEHI-231 cells, 0, 2, 5 minutes. Type of experiment: cell-based.
Text: The effect of IL-17E on activation of signaling pathways in B cells was examined using the B cell lymphoma cell line WEHI-231 (Lanier L. L., et al. (1981) J. Immunol. 126:626-31). Specifically, the activation status of the protein tyrosine kinase Lyn and the B cell linker protein BLNK (Tsubata, T., et al., (2001) Int Rev Immunol 20:675-8) were examined. An increased level of the phosphorylated forms of these proteins is indicative of activation.
A total of 1.5×10^6 cells per sample were stimulated in vitro with 0.21 μg of either human IL-17E or murine IL17E at 37° C. Cells were lysed at time points t=0, 2, and 5 minutes in lysis buffer for 30 minutes on ice, followed by centrifugation for 10 minutes. Samples containing approximately 25 μg of protein were separated by SDS-PAGE, followed by transfer to membranes for Western blotting.
For detection of phosphorylated BLNK, Western blots were incubated with rabbit anti-phospho-BLNK antibodies, followed by horseradish peroxidase (HRP)-conjugated anti-rabbit antibodies.
as §1
(In general: In western blotting, separated proteins are transferred to a membrane and probed.)

B1: human IL-17E: Recombinant human IL-17E from PeproTech; two 145 amino acid chains, predominant form starting at Tyr 33 of GenBank AAG40848 (protein, listed as Homo sapiens)
chain: YSHWPSCCPSKGQDTSEELLRWSTVPVPPLEPARPNRHPESCRASEDGPLNSRAISPWRYELDRDLNRLPQDLYHARCLCPHCVSLQTGSHMDPRGNSELLYHNQTVFYRRPCHGEKGTHKGYCLERRLYRVSLACVCVRPRVMG
Regarding B1, in experiment [1] (Example 21), the “percentage of splenic B cells (CD19+) as compared to PBS” value is recorded as “significantly increased” and the “proportion of activated B cells (IgM, CD80, CD86) in the spleen as compared to PBS” value (“proportion … compared to PBS” below) was “significantly increased”. Further, the “levels of phosphorylated IkappaB alpha (p-IkB-α)” value in experiment [2] was “increased”. Moreover, the “levels of phosphorylated BLNK protein” value in experiment [3] was “increased”.

B2: murine IL-17E: Murine IL-17E from R&D Systems; predominant form starting at Val 17 of GenBank NP 542767 (protein)
chain: VSLRIQEGCSHLPSCCPSKEQEPPEEWLKWSSASVSPPEPLSHTHHAESCRASKDGPLNSRAISPWSYELDRDLNRVPQDLYHARCLCPHCVSLQTGSHMDPLGNSVPLYHNQTVFYRRPCHGEEGTHRRYCLERRLYRVSLACVCVRPRVMA
In the case of B2, in experiment [1] (Example 21), the “percentage of splenic B cells (CD19+) as compared to PBS” value is “significantly increased” and the “proportion … compared to PBS” value is reported as “significantly increased”. In experiment [1] (Example 22), the “percentage of splenic B cells (IgM+) as compared to PBS” value is “significantly increased” and the “proportion … compared to PBS” value is “significantly increased”. For the same molecule, the “levels of phosphorylated IkappaB alpha (p-IkB-α)” value in experiment [2] is “increased”. Also, in experiment [3], the “levels of phosphorylated BLNK protein” value is listed as “increased”.
